pIC50: −log10 of the molar value.

This test addresses bFGF receptor on BHK-21 (baby hamster kidney derived) cells (hamster). The test can be described thus: displacement of [^125I]-bFGF from BHK-21 cells, radioreceptor assay, IC50 read from the graph.
For “Recombinant human basic fibroblast growth factor (bFGF) (from UniProt P09038 143-288) (ligand)”, the pIC50 (in general, the IC50 on a negative log10 scale, so that one unit is a factor of ten) was 9.92. The figure for “Biotinylated bFGF (monobiotinylated recombinant human bFGF) (from UniProt P09038 143-288) (ligand)” is 9.40; for “Complex of bio-bFGF and the OX26/streptavidin conjugate (from UniProt P09038 143-288; P22629 37-163)” it is 9.25.

For the origin of these results see patent publication US20080154022A1.
